# Experimental data: patent US20230348616A1
# Tests used:
# Assay in all cases: flow cytometry on peptide-pulsed T2 cells, scFv 100 nM
# 7F = biological target: 7F
# 4A = biological target: 4A
# 5A = biological target: 5A
# 1F = biological target: 1F
# 3A = biological target: 3A
# 6L = biological target: 6L
# 2M = biological target: 2M
Binder,standardized gMFI (7F),standardized gMFI (4A),standardized gMFI (5A),further results
NYA-2048 (scFv) scFv: GQVQLVESGGGVVQPGRSLRLSCAASGFSIRSYDMHWVRQAPGKGLEWVATISYDGSQKYYADSVKGRFTISRDNSKNTLYLQMSSLRAEDTAVYHCARGSSGHYEAFDIWGQGTLVTVSSGGGGSGGGGSGGGGSQSVLTQPPSASGTPGQRVTISCSGSSSNIGNWYVSWYQQLPGTAPKLLIYDNNKRPSGVPDRFSGSKSGTSASLAISGLQSEDEADYYCGTWDSSLSAPWVFGGGTKLTVLGAAAGAGGDYKDDDDKGAAAHHHHHH,1.46,,,
NYA-2045 (scFv) scFv: GEVQLVESGGGLVQPGGSLRLSCAASGFSIRSYDIHWVRLAPGKGLEWVATISYDGSQKYYADSVKGRFTISRDESKNTLYLQMNSLRAEDTAVYHCARGSSGHYEAFDIWGQGTLVTVSSGGGGSGGGGSGGGGSQSVLTQPPSASGTPGQRVTISCSGSSSNIGNWYVSWYQQLPGTAPKLLIYDNNKRPSGVPDRFSGSKSGTSASLAISGLQSEDEADYYCGTWDSSLSAPWVFGGGTKLTVLGAAAGAGGDYKDDDDKGAAAHHHHHH,,1.17,0.94,
NYA-1143 (scFv) scFv: GEVQLVESGGGVVQPGRSLTPSCSASGFSIRSYDIHWVRLAPGKGLEWVATISYDGSQKYFADSVKGRFTIFRDESENMVYLQMSGLRVEDTAVYHCARGSSGHYEAFDIWGQGTMVTVSSGGGGSGGGGSGGGGSQSVLTQPPSVSAAPGQKVTISCSGSSSNIGNWYVSWYQQLPGTAPKLLIYDNNKRPSGIPDRFSGSKSGTSATLGITGLQTGDEADYYCGTWDSSLSAPWVFGGGTKVTVLGAAAGAGGDYKDDDDKGAAAHHHHHH,4.26,5.91,,standardized gMFI (1F): 1.77
NYA-2035 (scFv) scFv: GEVQLVESGGGVVQPGRSLTPSCSASGFSIRSYDIHWVRLAPGKGLEWVATISYDGSQKYFADSVKGRFTIFRDESENMVYLQMSGLRVEDTAVYHCARGSSGHYEAFDIWGQGTMVTVSSGGGGSGGGGSGGGGSQSVLTQPPSVSAAPGQKVTISCSGSSSNIGNWKVSWYQQLPGTAPKLLIYDNNKRPSGIPDRFSGSKSGTSATLGITGLQTGDEADYYCGTWDSSLSAPWVFGGGTKVTVLGAAAGAGGDYKDDDDKGAAAHHHHHH,,2.16,2.27,
NYA-2143 (scFv) scFv: GEVQLVESGGGVVQPGRSLTPSCSASGFSIRSYDIHWVRLAPGKGLEWVATISYDGSQKYFADSVKGRFTIFRDESENMVYLQMSGLRVEDTAVYHCARGSSGHYEAFDIWGQGTMVTVSSGGGGSGGGGSGGGGSQSVLTQPPSVSAAPGQKVTISCSGSSSNIGNWYVSWYQRLPGTAPKLLIYDNNKRPSGIPDRFSGSKSGTSATLGITGLQTGDEADYYCGTWDSSLSAPWVFGGGTKVTVLGAAAGAGGDYKDDDDKGAAAHHHHHH,5.26,,4.3,
NYA-1154 (scFv) scFv: GEVQLVESGGGVVQPGRSLTPSCSASGFSIRSYDMHWVRQAPGKGLEWVATISYDGSQKYFADSVKGRFTIFRDESENMVYLQMSGLRVEDTAVYHCARGSSNHYEAFDIWGQGTMVTVSSGGGGSGGGGSGGGGSQSVLTQPPSVSAAPGQKVTISCSGSSSNIGNNYVSWYQRLPGTAPKLLIYDNNKRPSGIPDRFSGSKSGTSATLGITGLQTGDEADYYCGAWDSSLSAPWVFGGGTKVTVLGAAAGAGGDYKDDDDKGAAAHHHHHH,,,1.12,standardized gMFI (1F): 3.98
NYA-1163 (scFv) scFv: GEVQLVESGGGVVQPGRSLTPSCSASGFSIRSYDIHWVRLAPGKGLEWVATISYDGSQKYFADSVKGRFTIFRDESENMVYLQMSGLRVEDTAVYHCARGSSGHYEAFDIWGQGTMVTVSSGGGGSGGGGSGGGGSQSVLTQPPSVSAAPGQKVTISCSGSSSNIGNNYVSWYQQLPGTAPKLLIYDNNKRPSGIPDRFSGSKSGTSATLGITGLQTGDEADYYCGTWDSSLSAPWVFGGGTKVTVLGAAAGAGGDYKDDDDKGAAAHHHHHH,1.11,,,standardized gMFI (3A): 1.7; standardized gMFI (6L): 1.74; standardized gMFI (2M): 1.85
NYA-2023 (scFv) scFv: GEVQLVESGGGVVQPGRSLTPSCSASGFSIRSYDIHWVRQAPGKGLEWVATISYDGSQKYFADSVKGRFTIFRDESENMVYLQMSGLRVEDTAVYHCARGSSGHYEAFDIWGQGTMVTVSSGGGGSGGGGSGGGGSQSVLTQPPSVSAAPGQKVTISCSGSSSNIGNWYVSWYQQLPGTAPKLLIYDNNKRPSGIPDRFSGSKSGTSATLGITGLQTGDEADYYCGTWDSSLSAPWVFGGGTKVTVLGAAAGAGGDYKDDDDKGAAAHHHHHH,,,1.21,
NYA-2047 (scFv) scFv: GQVQLVESGGGVVQPGRSLRLSCAASGFSIRSYDMHWVRQAPGKGLEWVATISYDGSQKYYADSVKGRFTISRDNSKNTLYLQMSSLRAEDTAVYHCARGSSGHYEAFDIWGQGTLVTVSSGGGGSGGGGSGGGGSQSVLTQPPSVSAAPGQKVTISCSGSSSNIGNWYVSWYQQLPGTAPKLLIYDNNKRPSGIPDRFSGSKSGTSATLGITGLQTGDEADYYCGTWDSSLSAPWVFGGGTKVTVLGAAAGAGGDYKDDDDKGAAAHHHHHH,3.11,,1.03,
NYA-2044 (scFv) scFv: GEVQLVESGGGLVQPGGSLRLSCAASGFSIRSYDIHWVRLAPGKGLEWVATISYDGSQKYYADSVKGRFTISRDESKNTLYLQMNSLRAEDTAVYHCARGSSGHYEAFDIWGQGTLVTVSSGGGGSGGGGSGGGGSQSVLTQPPSVSAAPGQKVTISCSGSSSNIGNWYVSWYQQLPGTAPKLLIYDNNKRPSGIPDRFSGSKSGTSATLGITGLQTGDEADYYCGTWDSSLSAPWVFGGGTKVTVLGAAAGAGGDYKDDDDKGAAAHHHHHH,,,2.2,
